# Test results taken from patent US10806804B2, “Compounds having RD targeting motifs and methods of use thereof” (Washington University, priority 2015, dated 2020).
# Positions of bridges follow the written chain, without caps; N, C: chain ends. Non-standard residues stand in square brackets, D forms with d. Residues, ends and D or L forms follow the SMILES beside them. Primed or numbered codes have the meaning given here. *: point of attachment. Cypate = CC1(C)C(/C=C/C=C/C=C/C=C2/N(CCC(=O)*)c3ccc4ccccc4c3C2(C)C)=[N+](CCC(=O)O)c2ccc3ccccc3c21; Cypate′ = not defined here
# Assays:
# albumin [1] = target: T1, albumin (Homo sapiens, UniProt P02768); settings: carbocyanine dyes, previous study; cited from earlier work
# T1 sequence (P02768 25-609, species assumed): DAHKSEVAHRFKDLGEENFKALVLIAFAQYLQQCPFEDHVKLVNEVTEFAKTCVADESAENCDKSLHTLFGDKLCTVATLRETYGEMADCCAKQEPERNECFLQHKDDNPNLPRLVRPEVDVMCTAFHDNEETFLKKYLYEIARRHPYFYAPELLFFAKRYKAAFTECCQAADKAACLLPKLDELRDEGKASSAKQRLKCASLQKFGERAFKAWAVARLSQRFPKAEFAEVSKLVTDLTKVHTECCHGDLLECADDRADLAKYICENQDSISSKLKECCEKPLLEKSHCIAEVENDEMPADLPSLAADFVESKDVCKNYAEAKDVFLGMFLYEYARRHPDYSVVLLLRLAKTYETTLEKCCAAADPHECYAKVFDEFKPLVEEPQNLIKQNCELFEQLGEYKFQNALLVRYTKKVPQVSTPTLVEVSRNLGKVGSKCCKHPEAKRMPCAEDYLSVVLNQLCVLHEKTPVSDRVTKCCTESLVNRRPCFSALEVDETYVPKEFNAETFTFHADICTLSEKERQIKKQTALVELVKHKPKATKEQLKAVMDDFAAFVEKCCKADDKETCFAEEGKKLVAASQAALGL
# 4T1 luc = assay: in vivo tumor targeting / fluorescence imaging of probes compared with LS301; design: species or system Balb/c; settings: Tyr adjacent to the cypate
# Procedure: FIG. 5 depicts images showing LS838 for fluorescence and nuclear (PET and or SPECT) imaging. 4T1 luc in Balb/c; 100 μl of 50 μM LS838.
# FIG. 6 depicts the distribution of LS838 in tissue at 24 hours.
# A variety of probes which have similar sequence compared to LS301 were designed and prepared (Table 1). The probes have different peptide sequences, D-, L-amino acid variations or different groups on C-terminus. The sequences of the probes were tested by LC-MS and the spectroscopy properties were recorded. The performances of the tumor targeting abilities were also tested in vivo. […] It was unexpected that LS838 would be brighter relative to LS301 and it is unknown to us why it does. However, the enhanced brightness allows the use of smaller amounts of material to achieve the same uptake kinetics and accumulation as LS301. FIG. 5 depicts the accumulation of LS838 in vivo and FIG. 6 graphically quantifies the intensity of LS838 in various organs. […] LS838 labeled can be labeled with radionuclides such as radio-iodine, bromine, or fluorine for combined optical and nuclear imaging.
# [2] = in vivo
# Source text: While this is not a problem in the proposed laparoscopy, the excretion route to the kidneys can be altered by conjugating positively charged moieties (—^+NMe3) or nonionic groups (e.g. PEG) to the free carboxylic acid group of cypate. […] In the unlikely event that the cyanine dyes are photo-unstable, they will be replaced with NIR pyrrolopyrrole cyanine dyes (PPCy), which are highly photostable and have exceptionally high fluorescence quantum yields (up to 80%).
# albumin [3] = target: T1, albumin; assay: binding of carbocyanine dyes and LS838 to albumin (binding constant K)
# Source text: The hypothesis is that the binding of cypate to albumin facilitates the internalization of LS838 in PDAC/PanIN lesions. In a previous study, the binding of some carbocyanine dyes to albumin was compared. […] It was also shown that conjugation of peptides to the dyes decreases the K by a factor of ˜10. Using the same method, we determined the K value of LS838 to be 86,000 M^−1.
# PDAC [4] = system: PDAC; design: species or system mice; settings: mouse, in vivo
# Source text: To overcome this problem, the use of peptides as a tumor-trapping mechanism was explored. The highly reducing environment of tumor cells is known to reduce disulfide bonds to thiols, which can trans-thiolate with cysteine-containing intracellular proteins to trap the molecular probe. Therefore, a variety of disulfide-containing peptides were conjugated to cypate and the compounds were screened in mice with advanced stage PDAC. […] Replacement of the D-Cysteine with the natural L-Cysteine residue abrogates this retention.
# pancreas tumor cells = settings: in vivo
# PDAC [5] = assay: in vivo uptake/contrast in PDAC relative to uninvolved pancreas
# Source text: A similar trend is observed in vivo, where preferential uptake in PDAC relative to uninvolved pancreas is […]. […] Permutation of the arginine-aspartic acid sequence results in a loss of PDAC-selective uptake. It has been shown that cypate binds to the hydrophobic pockets of albumin, irrespective of the source (human, murine, or bovine). […] Thus, the primary goal of this study is to determine the role of the peptide in tumor cell internalization or retention. Based on preliminary data, this question can be addressed by preparing the following cypate-labeled peptides (underlined amino acids are changes made to LS838): […]
# tumor cells = assay: NIR fluorescence microscopy of uptake and trafficking in cells; type: cell-based; settings: dye alone
# Procedure: FIG. 8A and FIG. 8B depict uptake of LS838 in 4T1 luc cells showing internalization of the probe in the cells at 1 h (FIG. 8A) and 4 h (FIG. 8B) post incubation. Most cells show localization in the lysosomes at early time points, but the punctate fluorescence became more diffuse at 24 h, indicating translocation to the cytosol. Uptake in the mitochondria was negligible. Color scheme: cyan, Mitotracker; green, lysotracker; and red, LS838. (FIG. 8C) Internalization of LS838 in cells was inhibited by Filipinin, an inhibitor of albumin endocytosis via the gp60 pathway. A similar inhibition was observed when Alexa-680 dye labeled albumin (BSA; blue) was mixed with LS838.
# At early time points, LS838 is largely in the lysosomes, but it translocates to the cytosol in a time-dependent manner. […]
# Aggresomes are microtubule-catalyzed aggregates of […] that are used to degrade particularly stable and aggregated proteins. […] It will be evaluated if tumors have a lower ability to form aggresomes because of microtubule dysfunction, leading to prolonged retention in tumor cells compared to normal cells. If LS838 induces aggresome formation in tumor cells, but not fibroblasts will first be determined. […] It will also be determined if aggresomes form in vivo using a literature method. […] Aggresome formation will be determined by staining muscle, skin, and tumors for anti-ubiquitin protein. […]
compound,measurement,setting,value
"CC1(C)C(/C=C/C=C/C=C/C=C2\N(CCCCS(=O)(=O)O)c3ccc4ccccc4c3C2(C)C)=[N+](CCCCS(=O)(=O)[O-])c2ccc3ccccc3c21 [ICG, indocyanine green]",binding constant (K) to albumin,albumin [1],"554,000 M^−1"
"CC1(C)C(/C=C/C=C/C=C/C=C2/N(CCC(=O)N[C@@H](Cc3ccc(O)cc3)C(=O)N[C@@H]3CSSC[C@@H](C(=O)N[C@@H](CCCCN)C(=O)O)NC(=O)[C@@H]4CCCN4C(=O)[C@H](CO)NC(=O)[C@H](CC(=O)O)NC(=O)[C@H](CCCNC(=N)N)NC(=O)CNC3=O)c3ccc4ccccc4c3C2(C)C)=[N+](CCC(=O)O)c2ccc3ccccc3c21 [LS747, Cypate-Tyr-Cyclo(DCys-Gly-Arg-Asp-Ser-Pro-Cys)-Lys-OH] (Cypate-Y[dC]GRDSPCK-OH; disulfide 2-8)",retention in tumors after in vivo administration,4T1 luc,rapid loss of retention in tumors
"CC1(C)C(/C=C/C=C/C=C/C=C2/N(CCC(=O)N[C@@H]3CSSC[C@@H](C(=O)N[C@@H](Cc4ccc(O)cc4)C(=O)O)NC(=O)[C@@H]4CCCN4C(=O)[C@H](CO)NC(=O)[C@H](CC(=O)O)NC(=O)[C@H](CCCNC(=N)N)NC(=O)CNC3=O)c3ccc4ccccc4c3C2(C)C)=[N+](CCC(=O)O)c2ccc3ccccc3c21 [LS838, Cypate-Cyclo(DCys-Gly-Arg-Asp-Ser-Pro-Cys)-Tyr-OH] (Cypate-[dC]GRDSPCY-OH; disulfide 1-7)",clearance route,[2],clears through the liver
same,Kd,albumin [3],11.6 µM
same,selective retention in tumors (duration),PDAC [4],over 48 h
same,time remaining primarily in the tumor cells relative to non-tumor cells,pancreas tumor cells,up to 100 h
same,time to internalization in the pancreas,pancreas tumor cells,≤ 1 h
CC1(C)C(/C=C/C=C/C=C/C=C2/N(CCC(=O)O)c3ccc4ccccc4c3C2(C)C)=[N+](CCC(=O)[O-])c2ccc3ccccc3c21 [cypate],preferential uptake in PDAC relative to uninvolved pancreas,PDAC [5],not observed
same,efflux from tumor cells after transfer to new culture medium,tumor cells,rapidly effluxes
same,binding constant (K) to albumin,albumin [1],"556,000 M^−1"
Tyr-Cypate-Cyclo(DCys-Gly-Arg-Asp-Ser-Pro-Cys)-Lys-NH2 ({Tyr-Cypate′}-[dC]GRDSPCK-NH2; disulfide 1-7 (inferred)) [LS758],retention in tumors after in vivo administration,4T1 luc,rapid loss of retention in tumors
